One substance from PMC6526389 can be followed below.

Assay [1] addresses HA-tagged human CXCR1 expressed on L1.2 cells (human) (UniProt P25024). Description: radioligand binding; competition of increasing concentrations of unlabeled CXCL8 (pre-incubated with H292 or H575 culture supernatant, then Pefabloc SC) against [125I]-CXCL8 on L1.2 cells expressing HA-CXCR1 or HA-CXCR2; n = 6.
The target in assay [2] is HA-tagged human CXCR2 expressed on L1.2 cells (human) (UniProt P25025). The description is as above.

As a reminder, the IC50 is the concentration that inhibits the measured activity by half. Take “Recombinant human CXCL8, 72 aa form (CXCL8^1–72), intact (incubated with control H575 supernatant) (ligand)”: the IC50 stood at 8.1 nM in assay [1] and 8.7 nM in assay [2].
